US20210292414A1 (H LUNDBECK A S, published 2021)

T1: Sortilin SORTECDBAP_hB45678 (human/tetraodon chimera)
T1 construct: Shuffle construct: chimeric human/tetraodon Sortilin ECD with BAP tag
T1 chain: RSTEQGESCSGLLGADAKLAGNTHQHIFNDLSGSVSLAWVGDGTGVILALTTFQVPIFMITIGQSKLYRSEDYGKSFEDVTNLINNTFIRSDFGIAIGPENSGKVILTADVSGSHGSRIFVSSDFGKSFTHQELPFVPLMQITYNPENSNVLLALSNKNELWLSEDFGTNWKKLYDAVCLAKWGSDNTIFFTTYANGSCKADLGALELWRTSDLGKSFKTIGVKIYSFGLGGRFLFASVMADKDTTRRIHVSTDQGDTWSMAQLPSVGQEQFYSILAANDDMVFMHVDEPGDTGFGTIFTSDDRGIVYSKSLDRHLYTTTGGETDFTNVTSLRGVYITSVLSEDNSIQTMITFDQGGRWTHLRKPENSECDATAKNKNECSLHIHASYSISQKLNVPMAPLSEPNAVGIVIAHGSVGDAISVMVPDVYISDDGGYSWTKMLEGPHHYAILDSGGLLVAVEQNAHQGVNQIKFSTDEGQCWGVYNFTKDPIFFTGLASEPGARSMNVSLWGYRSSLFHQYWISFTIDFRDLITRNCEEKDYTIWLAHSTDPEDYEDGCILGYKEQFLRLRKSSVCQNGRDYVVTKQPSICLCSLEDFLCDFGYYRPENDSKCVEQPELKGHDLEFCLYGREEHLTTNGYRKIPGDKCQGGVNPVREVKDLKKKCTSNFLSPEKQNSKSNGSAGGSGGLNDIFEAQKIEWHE

T2: Sortilin SORTECDBAP_hB06-10 (human/tetraodon chimera)
T2 construct: Shuffle construct: chimeric human/tetraodon Sortilin ECD with BAP tag
T2 chain: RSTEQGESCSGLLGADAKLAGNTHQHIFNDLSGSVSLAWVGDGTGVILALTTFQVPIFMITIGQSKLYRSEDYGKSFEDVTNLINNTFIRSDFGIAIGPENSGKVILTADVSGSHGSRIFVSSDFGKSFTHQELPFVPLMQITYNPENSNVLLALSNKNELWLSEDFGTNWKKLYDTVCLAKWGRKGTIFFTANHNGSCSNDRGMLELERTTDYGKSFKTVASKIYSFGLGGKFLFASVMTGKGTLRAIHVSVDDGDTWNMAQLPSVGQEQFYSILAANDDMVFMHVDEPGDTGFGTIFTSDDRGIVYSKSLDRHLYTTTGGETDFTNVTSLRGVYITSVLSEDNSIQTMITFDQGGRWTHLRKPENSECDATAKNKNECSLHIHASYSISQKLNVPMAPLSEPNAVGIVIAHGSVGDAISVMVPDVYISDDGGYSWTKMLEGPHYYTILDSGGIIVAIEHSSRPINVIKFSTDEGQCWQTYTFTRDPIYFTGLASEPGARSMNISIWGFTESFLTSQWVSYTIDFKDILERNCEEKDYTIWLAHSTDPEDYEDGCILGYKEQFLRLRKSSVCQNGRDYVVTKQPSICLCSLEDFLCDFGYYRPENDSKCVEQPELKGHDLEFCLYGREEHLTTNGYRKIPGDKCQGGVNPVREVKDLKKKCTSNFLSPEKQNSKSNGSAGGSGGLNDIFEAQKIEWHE

T3: Sortilin hSORTECDBAP (human, UniProt Q99523 78-755)
T3 sequence: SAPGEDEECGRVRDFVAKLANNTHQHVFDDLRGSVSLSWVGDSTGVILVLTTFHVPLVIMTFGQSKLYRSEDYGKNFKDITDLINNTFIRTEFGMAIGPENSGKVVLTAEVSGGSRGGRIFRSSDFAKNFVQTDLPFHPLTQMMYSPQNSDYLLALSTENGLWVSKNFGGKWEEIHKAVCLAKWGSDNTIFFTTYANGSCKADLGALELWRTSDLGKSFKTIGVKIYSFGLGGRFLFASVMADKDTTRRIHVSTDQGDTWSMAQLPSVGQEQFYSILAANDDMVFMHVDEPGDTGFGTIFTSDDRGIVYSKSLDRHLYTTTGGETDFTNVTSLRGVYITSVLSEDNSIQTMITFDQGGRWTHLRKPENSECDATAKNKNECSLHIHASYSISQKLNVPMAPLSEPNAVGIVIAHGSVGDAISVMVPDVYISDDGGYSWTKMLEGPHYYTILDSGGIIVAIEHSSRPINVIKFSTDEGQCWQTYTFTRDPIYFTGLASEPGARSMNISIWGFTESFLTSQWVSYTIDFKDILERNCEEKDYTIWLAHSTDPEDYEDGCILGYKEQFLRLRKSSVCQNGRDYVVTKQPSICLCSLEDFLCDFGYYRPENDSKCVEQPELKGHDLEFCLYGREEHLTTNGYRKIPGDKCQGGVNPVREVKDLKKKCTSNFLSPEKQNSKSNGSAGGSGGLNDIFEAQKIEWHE

T4: Sortilin SORTECDBAP_tetra (tetraodon)
T4 construct: Fully tetraodon Sortilin ECD with BAP tag; also called tetraodon; tetraodon Sortilin
T4 chain: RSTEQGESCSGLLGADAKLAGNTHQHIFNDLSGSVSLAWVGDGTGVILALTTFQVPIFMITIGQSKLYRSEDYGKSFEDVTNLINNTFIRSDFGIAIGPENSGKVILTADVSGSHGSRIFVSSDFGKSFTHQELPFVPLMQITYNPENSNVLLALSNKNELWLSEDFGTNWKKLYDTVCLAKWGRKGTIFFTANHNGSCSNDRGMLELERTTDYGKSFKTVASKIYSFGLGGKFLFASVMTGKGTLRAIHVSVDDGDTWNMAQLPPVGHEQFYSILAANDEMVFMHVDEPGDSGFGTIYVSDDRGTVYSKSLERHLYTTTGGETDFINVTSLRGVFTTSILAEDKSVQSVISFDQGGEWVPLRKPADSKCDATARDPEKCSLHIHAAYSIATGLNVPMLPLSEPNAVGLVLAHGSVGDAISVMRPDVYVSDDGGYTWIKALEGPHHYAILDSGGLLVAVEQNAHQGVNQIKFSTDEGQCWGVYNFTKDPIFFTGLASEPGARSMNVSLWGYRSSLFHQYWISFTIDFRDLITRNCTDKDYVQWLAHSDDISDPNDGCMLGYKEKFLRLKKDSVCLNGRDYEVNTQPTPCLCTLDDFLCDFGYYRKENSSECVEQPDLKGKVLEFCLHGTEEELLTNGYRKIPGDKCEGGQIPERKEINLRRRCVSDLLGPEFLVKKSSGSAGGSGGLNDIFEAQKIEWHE


Legend:
Assay in all cases: BLI (Octet384RED)
[1] = molecular target: T1, Sortilin SORTECDBAP_hB45678
[2] = molecular target: T2, Sortilin SORTECDBAP_hB06-10
Sortilin hSORTECDBAP = molecular target: T3, Sortilin hSORTECDBAP
[3] = molecular target: T4, Sortilin SORTECDBAP_tetra

Row | EC50 [1] | EC50 [2] | EC50 (Sortilin hSORTECDBAP) | binding result [3] | Binder
1 | 2 ng/mL | 1.34 ng/mL | 1.82 ng/mL | no binding | Antibody 6003-381 (antibody, human IgG1, V domains shown) VH: QVQLVESGGGVVQPGRSLRLSCAASGFTFSNYVMHWVRQAPGKGLEWVAAISYNGNNKYYADSVKGRFTISRDNSKNTLYLQMNSLRAEDTAVSYCAKGLNDAFDIWGQGTMVTVSS VL: not shown
2 | 2.58 ng/mL | 1.68 ng/mL | 1.93 ng/mL | no binding | IgG1-6003-408 (antibody, V domains shown, also called Antibody 6003-408) VH: EVQLVESGGGLVKPGGSLRLSCAASGFTFSSYSMNWVRQAPGKGLEWVSSISSSSSYIYYADSVKGRFTISRDNAKNSLYLQMNSLRAEDTAVYYCARRRIAAAGTGYGAFDIWGQGTMVTVSS VL: ARQLTQSPSSLSASVGDRVTITCRASQGITSALAWYQQKPGKVPKLLIYDASSLESGVPSRFSGSGSGTDFTLTISSLQPEDFATYYCQQFNGYPMFSFGQGTKLEII
3 | 0.85 ng/mL | 0.74 ng/mL | 0.89 ng/mL | no binding | Antibody 6003-030 (antibody, human IgG1, V domains shown, Human antibody (HuMab); also called antibody 30; mAb30) VH: EVQVLESGGGLVQPGGSLRLSCAASGFTFSSYAMSWVRQAPGKGLEWVSTISGRGGNTYYADSVKGRFTISRDNSKNTLYLQMDSLRAEDTAVYYCAIIPSLYWYFDLWGRGTLVTVSS VL: EIVLTQSPATLSLSPGERATLSCRASQSVSSYLAWYQQKPGQAPRLLIYDASNRATGIPARFSGSGSGTDFTLTISSLEPEDFAVYYCQQRSNWPLTFGGGTKVEIK
4 | 1.1 ng/mL | 0.97 ng/mL | 1.26 ng/mL | no binding | Antibody 6003-056 (antibody, human IgG1, V domains shown) VH: EVQVLESGGGLVQPGGSLRLSCVASGFTFSSYAMHWVRQAPGKGLEWVSAISGRGGSTYYADSVKGRFTISRDNSKNTLYLQMNSLRAEDTAVYYCAIIPSLYWYFDLWGRGTLVTVSS VL: EIVLTQSPATLSLSPGERATLSCRASQSVSSFLAWYQQKPGQAPRLLIYDASNRATGIPARFSGSGSGTDFTLTISSLEPEDFAVYYCQQRSNWPLTFGGGTKVEIK
5 | 1.02 ng/mL | 0.87 ng/mL | 1.02 ng/mL | no binding | Antibody 6003-1286 (antibody, human IgG1, V domains shown) VH: EVQLLESGGGLVQPGGSLRLSCAASGFTFSSYAMSWVRQAPGKGLEWVSTISGRGGNTYYADSVKGRFTISRDNSKNTLYLQMNSLRAEDAAVYYCANIYSHYWYFDLWGRGTLVTVSS VL: EIVLTQSPATLSLSPGERATLSCRASQSVNSYLAWYQQKPGQAPRLLIYDASNRATGIPARFSGSGSGTDFTLTISSLEPEDFAVYYCQQRSNWPLTFGGGTKVEIK
6 | 1.96 ng/mL | 1.56 ng/mL | 1.75 ng/mL | no binding | Antibody 6003-028 (antibody, human IgG1, V domains shown) VH: EVQLLESGGGLVQPGGSLRLSCAASGFTFSSYAMSWVRQAPGKGLEWVSTISGRGGSTYYADSVKGRFTISRDNSKNTLYLQMNSLRAEDTAVYYCANLYSNYWYFDLWGRGTLVTVSS VL: EIVLTQSPATLSLSPGERATLSCRASQSVSSFLAWYQQKPGQAPRLLIYDASNRATGIPARFSGSGSGTDFTLTISSLEPEDFAVYYCQQRSNWPLTFGGGTKVEIK
7 | 0.92 ng/mL | 0.76 ng/mL | 0.77 ng/mL | no binding | Antibody 6003-083 (antibody, human IgG1, V domains shown) VH: EVQLLESGGGLVQPGGSLRLSCAASGFTFSSYAMSWVRQAPGKGLEWVSTISGRGGSTYYADSVKGRFTISRDNSKNTLYLQMNSLRAEDTAVYYCAIVATMYWYFDLWGRGTLVTVSS VL: EIVLTQSPATLSLSPGERATLSCRASQSVSSYLAWYQQKPGQAPRLLIYDASNRATGIPARFSGSGSGTDFTLTISSLEPEDFAVYYCQQRSNWPITFGQGTRLEIK
8 | 4.3 ng/mL | 2.62 ng/mL | 3.03 ng/mL | no binding | Antibody 6003-1277 (antibody, V domains shown) VH: QVQLVQSGAEVKKPGASVKVSCKTSGYTFTHYGISWVRQAPGQGLEWMGWINTYNGNTKYAQKLQGRVTMTTDTSTSTAYMELRSLRSDDTAVYYCASLGRNFDYWGQGTLVTVSS VL: not shown
